Data from article PMC2582629 (Nucleic Acids Research, 2008).

Target: T1, mouse mMLH1 (mouse, UniProt Q9JK91 1-760)
T1 sequence (looked up): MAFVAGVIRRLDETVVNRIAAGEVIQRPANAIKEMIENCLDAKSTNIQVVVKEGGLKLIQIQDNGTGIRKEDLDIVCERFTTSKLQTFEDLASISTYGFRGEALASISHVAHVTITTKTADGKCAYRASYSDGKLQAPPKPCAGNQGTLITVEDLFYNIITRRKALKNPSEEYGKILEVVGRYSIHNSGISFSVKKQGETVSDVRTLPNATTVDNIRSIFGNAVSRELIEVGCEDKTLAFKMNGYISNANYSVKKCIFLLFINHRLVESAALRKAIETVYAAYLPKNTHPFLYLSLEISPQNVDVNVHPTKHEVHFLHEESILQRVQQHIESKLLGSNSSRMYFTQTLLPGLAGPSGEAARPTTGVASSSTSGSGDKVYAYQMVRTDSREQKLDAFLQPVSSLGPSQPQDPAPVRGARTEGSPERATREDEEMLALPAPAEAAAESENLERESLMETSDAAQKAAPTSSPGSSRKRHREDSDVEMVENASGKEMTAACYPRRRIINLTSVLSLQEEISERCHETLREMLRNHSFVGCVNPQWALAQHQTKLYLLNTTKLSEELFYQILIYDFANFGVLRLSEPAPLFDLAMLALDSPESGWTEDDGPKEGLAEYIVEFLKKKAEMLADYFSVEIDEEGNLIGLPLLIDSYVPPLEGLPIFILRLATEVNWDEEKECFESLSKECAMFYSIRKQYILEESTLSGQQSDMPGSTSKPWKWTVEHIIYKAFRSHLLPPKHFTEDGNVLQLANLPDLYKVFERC
Assay: pull-down

B1: GST-hRad9 (natural protein, human, UniProt Q99638 1-391, looked up)
chain: MKCLVTGGNVKVLGKAVHSLSRIGDELYLEPLEDGLSLRTVNSSRSAYACFLFAPLFFQQYQAATPGQDLLRCKILMKSFLSVFRSLAMLEKTVEKCCISLNGRSSRLVVQLHCKFGVRKTHNLSFQDCESLQAVFDPASCPHMLRAPARVLGEAVLPFSPALAEVTLGIGRGRRVILRSYHEEEADSTAKAMVTEMCLGEEDFQQLQAQEGVAITFCLKEFRGLLSFAESANLNLSIHFDAPGRPAIFTIKDSLLDGHFVLATLSDTDSHSQDLGSPERHQPVPQLQAHSTPHPDDFANDDIDSYMIAMETTIGNEGSRVLPSISLSPGPQPPKSPGPHSEEEDEAEPSTVPGTPPPKKFRSLFFGSILAPVRSPQGPSPVLAEDSEGEG
binding result: binds
